Test results taken from the Immune Epitope Database (IEDB).

Assays:
HLA-B*07:02 = assay: IEDB peptide-MHC binding, purified MHC/competitive/radioactivity; filed as Kd, often an IC50 or EC50 that approximates it; ≥ and ≤ were set here for values at or beyond the usual limits of such assays
HLA-B*18:01 = assay: as above
HLA-B*40:01 = assay: as above
HLA-B*40:02 = assay: as above
HLA-B*44:02 = assay: as above
HLA-B*44:03 = assay: as above
HLA-B*45:01 = assay: as above
HLA-A*02:01 = assay: IEDB peptide-MHC binding, purified MHC/direct/fluorescence; filed as Kd, often an IC50 or EC50 that approximates it; ≥ and ≤ were set here for values at or beyond the usual limits of such assays
HLA-A*03:01 = assay: as above
HLA-A*11:01 = assay: as above; details: source organism: Rickettsia conorii
HLA-A*31:01 = assay: as above
HLA-A*69:01 = assay: as above; details: source organism: Rickettsia conorii
HLA-B*15:01 = assay: as above
HLA-B*58:01 = assay: as above; details: source organism: Rickettsia conorii
HLA-B*35:01 = assay: IEDB peptide-MHC binding, purified MHC/competitive/radioactivity; filed as Kd, often an IC50 or EC50 that approximates it; ≥ and ≤ were set here for values at or beyond the usual limits of such assays
HLA-B*53:01 = assay: as above; details: source organism: Dengue virus 4 Philippines/H241/1956
HLA-A*01:01 = assay: as above; details: source organism: Lymphocytic choriomeningitis virus (strain Armstrong)
HLA-A*23:01 = assay: as above; details: source organism: Lymphocytic choriomeningitis virus (strain Armstrong)
HLA-A*24:02 = assay: as above; details: source organism: Lymphocytic choriomeningitis virus (strain Armstrong)
HLA-A*26:01 = assay: as above; details: source organism: Lymphocytic choriomeningitis virus (strain Armstrong)
HLA-A*29:02 = assay: as above; details: source organism: Lymphocytic choriomeningitis virus (strain Armstrong)
HLA-A*30:01 = assay: as above; details: source organism: Lymphocytic choriomeningitis virus (strain Armstrong)
HLA-A*30:02 = assay: as above; details: source organism: Lymphocytic choriomeningitis virus (strain Armstrong)
HLA-A*32:01 = assay: as above; details: source organism: Lymphocytic choriomeningitis virus (strain Armstrong)
[1] = source organism: Dengue virus 1 Brazil/97-11/1997
[2] = source organism: SARS coronavirus Tor2
[3] = source organism: Mammarenavirus machupoense
[4] = source organism: Rickettsia conorii
[5] = source organism: Mammarenavirus guanaritoense
[6] = source organism: Giardia lamblia ATCC 50803
[7] = source organism: Haemophilus influenzae
[8] = source organism: Entamoeba histolytica HM-1:IMSS

How did the Kd (HLA-B*07:02; [1]) turn out when GPLIAGGML was run?
The Kd was 127 nM.

HEFVDEFYAY was tested. Which Kd (HLA-B*18:01; [2]) did it give?
The Kd was 44.2 nM.

And the Kd (HLA-B*40:01; [2])?
Its Kd is 835 nM.

What about the Kd (HLA-B*40:02; [2]) of the same sequence?
Its Kd is 331 nM.

And the Kd (HLA-B*44:02; [2])?
The Kd was 3500 nM.

And the Kd (HLA-B*44:03; [2])?
Its Kd is 85.9 nM.

What about the Kd (HLA-B*45:01; [2]) of the same sequence?
The Kd was 7210 nM.

IEELFYSYA was tested. Which Kd (HLA-B*18:01; [2]) did it give?
Its Kd is 3960 nM.

And the Kd (HLA-B*40:01; [2])?
The Kd was 16000 nM.

And the Kd (HLA-B*40:02; [2])?
Its Kd is 3060 nM.

What about the Kd (HLA-B*44:02; [2]) of the same sequence?
The Kd was 1770 nM.

And the Kd (HLA-B*44:03; [2])?
The Kd was 4600 nM.

What about the Kd (HLA-B*45:01; [2]) of the same sequence?
Its Kd is 49.5 nM.

For KEPQKPLVL, which Kd (HLA-B*18:01; [3]) is on record?
Its Kd is ≥ 77500 nM.

What about the Kd (HLA-B*40:01; [3]) of the same sequence?
Its Kd is 15800 nM.

And the Kd (HLA-B*40:02; [3])?
Its Kd is 401 nM.

What about the Kd (HLA-B*44:02; [3]) of the same sequence?
The Kd was 18000 nM.

What about the Kd (HLA-B*44:03; [3]) of the same sequence?
The Kd was ≥ 23800 nM.

What about the Kd (HLA-B*45:01; [3]) of the same sequence?
Its Kd is ≥ 70800 nM.

For KLNENIIRF, which Kd (HLA-A*02:01; [4]) is on record?
Its Kd is 1880 nM.

And the Kd (HLA-A*03:01; [4])?
The Kd was 554 nM.

What about the Kd (HLA-A*11:01) of the same sequence?
Its Kd is 5910 nM.

And the Kd (HLA-A*31:01; [4])?
Its Kd is 1280 nM.

What about the Kd (HLA-A*69:01) of the same sequence?
Its Kd is 4750 nM.

And the Kd (HLA-B*15:01; [4])?
Its Kd is 152 nM.

What about the Kd (HLA-B*58:01) of the same sequence?
Its Kd is 68.6 nM.

LAILFEEVM was tested. Which Kd (HLA-B*35:01; source organism: Dengue virus 3 Martinique/1243/1999) did it give?
Its Kd is 33.1 nM.

Which Kd (HLA-B*18:01; [5]) does the source give for LEREQIPTLI here?
The Kd was ≥ 57500 nM.

What about the Kd (HLA-B*40:01; [5]) of the same sequence?
The Kd was 2750 nM.

And the Kd (HLA-B*40:02; [5])?
Its Kd is 559 nM.

And the Kd (HLA-B*44:02; [5])?
Its Kd is 19600 nM.

What about the Kd (HLA-B*44:03; [5]) of the same sequence?
The Kd was 12800 nM.

What about the Kd (HLA-B*45:01; [5]) of the same sequence?
The Kd was 9710 nM.

What does the source list for MNQERRSLR?
Kd (HLA-A*03:01; [6]): ≥ 20000 nM; Kd (HLA-A*31:01; [6]): 118 nM

NPRLCTREEF was tested. Which Kd (HLA-B*35:01; source organism: Dengue virus 4 Philippines/H241/1956) did it give?
Its Kd is 892 nM.

And the Kd (HLA-B*53:01)?
The Kd was 197 nM.

With QEAYYRARAG as the sequence, how does the Kd (HLA-B*18:01; [2]) read?
Its Kd is ≥ 36100 nM.

What about the Kd (HLA-B*40:01; [2]) of the same sequence?
The Kd was 12700 nM.

And the Kd (HLA-B*40:02; [2])?
The Kd was 963 nM.

What about the Kd (HLA-B*44:02; [2]) of the same sequence?
Its Kd is 954 nM.

And the Kd (HLA-B*44:03; [2])?
Its Kd is 411 nM.

What about the Kd (HLA-B*45:01; [2]) of the same sequence?
The Kd was 607 nM.

With QECNNMHLST as the sequence, how does the Kd (HLA-B*18:01; [2]) read?
The Kd was ≥ 70500 nM.

What about the Kd (HLA-B*40:01; [2]) of the same sequence?
The Kd was 15200 nM.

What about the Kd (HLA-B*40:02; [2]) of the same sequence?
Its Kd is 595 nM.

And the Kd (HLA-B*44:02; [2])?
The Kd was 5610 nM.

And the Kd (HLA-B*44:03; [2])?
The Kd was 7120 nM.

And the Kd (HLA-B*45:01; [2])?
The Kd was 636 nM.

Which results are given for QEKAPDVGEL?
Kd (HLA-B*18:01; [3]): ≥ 44600 nM; Kd (HLA-B*40:01; [3]): 13000 nM; Kd (HLA-B*40:02; [3]): 1070 nM; Kd (HLA-B*44:02; [3]): 2340 nM; Kd (HLA-B*44:03; [3]): ≥ 20900 nM; Kd (HLA-B*45:01; [3]): 7030 nM

Which results are given for REAACCHLA?
Kd (HLA-B*18:01; [2]): ≥ 31400 nM; Kd (HLA-B*40:01; [2]): 236 nM; Kd (HLA-B*40:02; [2]): 97.5 nM; Kd (HLA-B*44:02; [2]): 3030 nM; Kd (HLA-B*44:03; [2]): 1910 nM; Kd (HLA-B*45:01; [2]): 11.4 nM

With RMGVKSQLL as the sequence, how does the Kd (HLA-A*02:01; [7]) read?
Its Kd is 3130 nM.

What about the Kd (HLA-A*03:01; [7]) of the same sequence?
The Kd was 18000 nM.

What about the Kd (HLA-A*31:01; [7]) of the same sequence?
The Kd was 2070 nM.

What about the Kd (HLA-B*15:01; [7]) of the same sequence?
The Kd was 1280 nM.

SEVAVLYQDV was tested. Which Kd (HLA-B*18:01; [2]) did it give?
The Kd was 3110 nM.

What about the Kd (HLA-B*40:01; [2]) of the same sequence?
Its Kd is 962 nM.

And the Kd (HLA-B*40:02; [2])?
The Kd was 134 nM.

What about the Kd (HLA-B*44:02; [2]) of the same sequence?
Its Kd is 1120 nM.

What about the Kd (HLA-B*44:03; [2]) of the same sequence?
The Kd was 104 nM.

What about the Kd (HLA-B*45:01; [2]) of the same sequence?
Its Kd is 200 nM.

Which Kd (HLA-B*18:01; [2]) does the source give for TEVVGNVIL here?
The Kd was 5870 nM.

And the Kd (HLA-B*40:01; [2])?
The Kd was 14.9 nM.

What about the Kd (HLA-B*40:02; [2]) of the same sequence?
The Kd was 177 nM.

What about the Kd (HLA-B*44:02; [2]) of the same sequence?
Its Kd is 15200 nM.

And the Kd (HLA-B*44:03; [2])?
The Kd was 6820 nM.

What about the Kd (HLA-B*45:01; [2]) of the same sequence?
The Kd was 15100 nM.

For TEYDGHINL, which Kd (HLA-B*18:01; source organism: Variola virus) is on record?
Its Kd is 11.5 nM.

And the Kd (HLA-B*40:01; source organism: Variola virus)?
The Kd was 6.19 nM.

What about the Kd (HLA-B*40:02; source organism: Variola virus) of the same sequence?
Its Kd is 0.998 nM.

What about the Kd (HLA-B*44:02; source organism: Variola virus) of the same sequence?
The Kd was 58.3 nM.

What about the Kd (HLA-B*44:03; source organism: Variola virus) of the same sequence?
Its Kd is 9880 nM.

What about the Kd (HLA-B*45:01; source organism: Variola virus) of the same sequence?
Its Kd is 391 nM.

How did the Kd (HLA-B*07:02; [1]) turn out when TPQAPTSEIQ was run?
Its Kd is 808 nM.

TPRMCTREE was tested. Which Kd (HLA-B*07:02; source organism: Dengue virus 2 Jamaica/1409/1983) did it give?
Its Kd is 1930 nM.

With WEVGKPRPPL as the sequence, how does the Kd (HLA-B*18:01; [2]) read?
The Kd was ≥ 23900 nM.

What about the Kd (HLA-B*40:01; [2]) of the same sequence?
Its Kd is 15.9 nM.

And the Kd (HLA-B*40:02; [2])?
Its Kd is 18.6 nM.

What about the Kd (HLA-B*44:02; [2]) of the same sequence?
The Kd was 5920 nM.

What about the Kd (HLA-B*44:03; [2]) of the same sequence?
Its Kd is 7210 nM.

What about the Kd (HLA-B*45:01; [2]) of the same sequence?
The Kd was ≥ 59600 nM.

Which Kd (HLA-A*03:01; [8]) does the source give for WYKVFVPRR here?
Its Kd is ≥ 20000 nM.

And the Kd (HLA-A*31:01; [8])?
The Kd was 102 nM.

With YEDKVWDKY as the sequence, how does the Kd (HLA-A*01:01) read?
The Kd was 7020 nM.

What about the Kd (HLA-A*23:01) of the same sequence?
Its Kd is ≥ 77700 nM.

And the Kd (HLA-A*24:02)?
Its Kd is ≥ 77500 nM.

What about the Kd (HLA-A*26:01) of the same sequence?
Its Kd is ≥ 77900 nM.

And the Kd (HLA-A*29:02)?
The Kd was ≥ 29900 nM.

What about the Kd (HLA-A*30:01) of the same sequence?
Its Kd is ≥ 32200 nM.

And the Kd (HLA-A*30:02)?
The Kd was 2710 nM.

And the Kd (HLA-A*32:01)?
The Kd was ≥ 77800 nM.
